Assay results as given in the DeepSol protein solubility set.

Experiment: soluble on expression in E. coli; label from the status in PepcDB or PDB records

Soluble on expression in E. coli, not soluble:
MGSDKIHHHHHHMKAVTLRANCDPLFSLFMTSFSEANNIYILNFKKRALQSLLKVKLMYYHESIDSKSKIFPVKIILHDKAVNVPKHWHRSLEISYTYQGSIPDFTIAGKHYSTRPGTILVVNSNEIHSVFFPKTKKRQDSLALSLIFPYPFLMKIVPNYRYRRYEIPDKELLTANNQQNLAELEGILKKFFQFASHQTNSLDEISKTSQILQILYLLTKNFSSIVTTPNDLATTDKPFERLDEIIMFIQEHAKEALTVTKIADHFNLSTSYFSRNFKYYMGNSVIEYLNLVRLHEAYQLLTNTKKSILVISTQVGFPNEKAFTRTFKRIYKVTPTDYRKRLSGKNRTNIL
MGSDKIHHHHHHMKCILYKKALPLILLSCLLLGACGNSKNDSVSKEPLSHTSTEKGTWDSAPKVLTPTADGTQTYTCDVASIDASNSGSGYIIVNYHGSNQKVKLQITGPDSVTYTFDLHGGNEVFPLVASSGSYTVTVFENVEGTQYATVLSQVISVSITDEFGPYLYPNQYVNFTADSPAVKEGSSLAYYCSSDTEVVESVYNYIISNFKYDYDKAKNVKSGYLPDVDKVFTENTGICFDYAAVMATMLRTQAIPTRLEVGYAGEEYHAWISTYIKDKGWINGIIEFDGTSWNMLDPTFASTSDSPKKFIAQKSDYITKYVY
MGSDKIHHHHHHMKDKDINNDFNHIFPKDIRDDFLFSLDSYRLFLEGLSINPSLFYQKWSDVHLQSIIDKYWKPTQKSDWKWSLALPIFSLLENYINTFNKPIIIGFSGLPGSGKSTLGLWIDSVARELSLDIKVISLDDFYLPGHEMDVAMTGNPWNVPRGFPGSHSLDLLNQSLDVFLKTGVLNSPTFDKSLRDGKGDRSGWCDSQPRVLILEGWFVGCEAVSDLSKIDSMAADEFNLSLSQSEKDYRILIQESLFEYSHIWKKFEKIWHLKSSQFNNTILWKSQQEGEMIKLKGSGLKGNNLSNFIRMIQTSIPQQSLSFINSDTTVGINQDRRINFLKTSKYYF
MGSDKIHHHHHHMKDKVVVSQLGARMHYAVPRIFASAGRLAHFYTDICATKGWPRIVNSFPATLYPAPVKRLAGRLPKGVPTALTTVFSNFGLRSVLRHMRAKDVVEETSHAIWAGSIFSEMVARRGFHGAAGLYAFSGDALEQMQAAKQQGLWTAVEQMIAPRDVVEMLLNQEMKRFPAWAGPVQENPHARLFAEREKAEWRLADVIVCPSEFVRKNVVACGGPEDRCVVVPYGVNAAVANNRPARMPGPIRVLTVGEVGLRKGSPYVVEASRLMEGSARFRMAGRVRLADDVKQQISQWVELRGIVPRSQIAEEFRWADVFLLPSLCEGSATAVYEALAAGLPVITTENTGSVVRDGIEGFIVPVCDPEAIATAVRALAGNPELMRSMSANALLRAAEHTVESYGERLLAVLSGPHLAGSVGLCQTEEARYLGNNTI
MGSDKIHHHHHHMKEIVEQNIFNEDLSQLLYSFIDSKETFSFAESSILHYVVFGGENLDVATRLGAGIEILILSSDIMDDLEDEDNHHALWMKINRSESLNAALSLYTVGLTSIYSLNNNPLIFKYVLKYVNEAMQGQHDDITNKSKTEDESLEVIRLKCGSLIALANVAGVLLATGEYNETVERYSYYKGIIAQISGDYYVLLSGNRSDIEKNKHTLIYLYLKRLFNDASEDLLYLISHKDLYYKSLLDKEKFQEKLIKAGVTQYISVLLEIYKQKCISAIEQLNLDKEKKELIKECLLSYTKGDTRCKT
MGSDKIHHHHHHMKEPLSLSFDEQMALFEERGMQMTSKDVEKLKVIGYYRIKQFAAPLANKKIVNENTVYDYKGIYFSDVLKRYYQDKNLRIHLLHAIEKIEVALKTWVAFILGEQYGAFGYLNFSEWCDKNRYSKFEIEKRQFFFKKDLLRATSRSCTEDIKLKKNKEKDNFPSIWLAVEVLTFGELVRLVEIMSTRNKRKLSKMFRCTDIELLSWLKCINFVRNACAHNANVIDLQLETKPVCRSDWKDYLYNVNKSNNGTPSNKLAIVIFIIKTLVTPINERYGWKNIRRNIARLVDSSDKNAHLLGFSDCASAYKVLEKSNGTTTKASLP
MGSDKIHHHHHHMKFIFDIDGTICFKGNAVTKGIIHALDVCQSKGHEVIFASARPIRDLLPVLPNHMHHYSMIGGNGAFIAKGKDTIEVITFDPGTVSAIHSIIKKHSLSYLIDSHWNYSYTGSENHPIYKNIDPNQLANNVHIDEIKEVVKVVLFPDHVQKEYIMNMLTELPIRIYEHDNEGIVDISPENIDKWVGLQRLGIKEREFVVFGNDSNDLSMFLHAKESICVGSHEVLLGYASTCLKIDEQSIVNKIIELSELYA
MGSDKIHHHHHHMKFTPELESGVLIKRYKRFLADIMLPNGQEITIHCPNTGSMKNCLFPGEKVWFSTSDNPKRKYAHTWELMQTDQQHYIGINTGRANALAEEAINRQVITELLGYEHLKREVKYGSENSRIDILLTSQNRPECYIEVKSCTLLEDQMGYFPDAVTTRGQKHLRELIHMVELGHRAVLLFVVQHSAITSVKPARHIDPHYADLLEQAVANGVEVLAYKTALSPQGSLITSACKVML
MGSDKIHHHHHHMKGFLQTVTGPVAHTDMGLTLPHEHLFNDLSSVVDEPHYAFSQQLVGKKVSADLQWGLKHDPYCCADNMDRKEIDDVIFEINNFMSLGGRTIVDATGSESIGRDASALREVALKTGLNIVASSGPYLEKFESTRIHKPVELLASLIDKELNQGIGETDIRAGMIGEIGVSPAFTQAERNSLRAASLAQCNNPHTAMNIHMPGWLRLGDEVLDIVLEEMNVSPAKVSLAHSDPSGKDVVYQRKMLDRGVWLEFDMIGLDITFPKEGVAPGVQETADAVANLIALGYADQIVLSHDVFLKQMWAKNGGNGWGFVPNVFLAYLAARGVDNDTLRKLCIDNPARLLTA
MGSDKIHHHHHHMKHLSLEALRSFSAVIELGSMTLAGERMGRSQPAISLQLKKLEQQLGVELLTRQGSGFALTADGDVLFDYAQRMLALNDQAWAQFEPQQVSGKVRLGITSEFASSLLPKVLGQFAQVYPQVTLQVTSALSKDLLSGLGQQFDIILALREQTNKSDVLIQREELVWVGLPGLLEQPGWPMVVAPEGCIYRRRAEQSLQRAHQPYRITYTNTDFSGLTAALNSGLGITVLAKSTVPKDIPILESFSDNKPLPNPGSVNVIMRLAGGASSAASQLADYLKARI
MGSDKIHHHHHHMKHSRTAAAKRKTGVFARLADLYTRMEQEYSDKARAAGLTCAGCPDNCCTSYFQHHTHVEWLYLWRGMNRLPEARRAAYLARAKDVVEQSRDLLARGIRPRLMCPVNDDGLCGIYEHRLMICRMHGTRNVLALPDGGLRSFSGCFRFVECTAGQQAEAVPTVDRTPYYRELAALEMEHVGPRLKKLPRVDLTLAEMLFYGPPKL
MGSDKIHHHHHHMKIHPIPPLQCLVFFDAAARHGNFTRAAEELNVTQGAVSKQVVKLESYLGMQLFVRDAKALHLTRAGQTYAGRIHDMLTGCAEATALVMKEPSPHSITIACASGTAGMFLTPIIADFSHEYPNVAIRILVREGVFNLNPAEFDIGVYYIRDVPPPGMSGIRIIEEEVQAYCAPSYLGRRRVSPHELTNVTLLVAEEQQRQWMSWRDWFHLCDSEIAYKPSRTITANSYPVLLQLALRGHGVLLGWNQMITPLVERSDLVLASDASASFGGAYQLVWPDDRRDTAAVTHFREWLLKRVPWKG
MGSDKIHHHHHHMKIKNDLIYDEIHALKADLYQPDNASKGLIIDIHGGGWFRGDKAKDQDLAEALVKDGFSVIVPNYRLTPDAYYPAPLDDMDTLYHWIKTSSKLFDSDRIAVVGSSAGGNMAVEMGIKYGLPIVSLSGILDIDDWLNEHTAVIAQPDHKQDFTNSKSSEINQTGQNDAFYKWFVTNYFNGNSDQYSLATPYKHVNSQPGPMFLANSLNEFVPTSGVLEMAKILTSKNVPYVEWMLPGTQHAKGYLEIVYPTVLNFLNQYI
MGSDKIHHHHHHMKIKVVLSGYGTVGREFIKLLHEKCSYIYETYGIELVVSGVLGRNVAIHNEDGLSIHNLLMYGSSSAAIEKYIEYHPEERATDNISGTVLVESTVTNLKDGNPGKQYIKQAIEKQMDIVAISKGALVTNWREINEAAKIANVRIRYSGATAAALPTLDIGQFSLAGCHVKKIEGILNGTTNYILTKMNEEDITFEEALKEAQRKGIAETNPILDVSGSDSACKLLLLTNSLMGTEHMLTDIYIKGIEHVTKQQIRNAKEQNKFIKLIASAYKDQDGKVTLKVEPYEIDKDHPLANVNGTEKGITFFTDTMGQVTTIGGASNPRGAAAAALKDIINLYRKDLSLSNR
MGSDKIHHHHHHMKILVVGAGAVGGYFGARLAEKGEDVTFLVRERRFEELRAGLQVKSLHGDITCSPRLIRTGEKGTFDVILLSTKAYHLEQVLEDIEPFVATDTYILPLLNGMAHLKQLEQHFGAERVLGGLCFIESTLDGKGHIVQTSPSHHLLFGPLPGTRTDRLEELKQHLTGTAAPINYSDTITRDMWNKYLFITTFSGVTSLFRSAIGPIRSQEEGMMMIRRLATEAKEAMERQGAVFSDGIEQIQQQQIAQMDETMKSSLQRDMEKGNEVESAHLFGTLLSKDEATQVMLPAIYANLKIYRMSRKDV
MGSDKIHHHHHHMKISCKNVGVILPIFNSSHRSFKKTFLQAASGGRIGSSNTGIIEVEALKKIDFTLTEGNRLALIGHNGSGKTTLLRVLAGAYKPTSGKYECIGRVTSLIDPMMGMDGELTGLENIKLRGLFLGLSKNEIKNITEDVIEFSELGDFIKIPVRTYSSGMVLRLGFSISTAINPEILLMDEWMSVGDSDFKRKAEMRLNSFISKAGIMVMATHDDELAKSVCNKFIRLEHGEIVSKGGF
MGSDKIHHHHHHMKISETANKNHEELFPDHKSALKITDPELVEIFDNFAFDEVIQHGDLDTKTRLMVILGALIGSQTLSEYKVMLKGALNVGVTPIEVKEIVYQSVPYVGIAKAYDFINATNEILESRGVKLPLEGQSTTTPENRHEKGLEVQKSIFGEIIDKMYESSPKNQIHIQKYLSANCFGDYYTRTGLDIKTRELLTFCIILALGGCESQLKGHIVGNLNVGNDKKVLLDAVTQTLPYVGYPRTLNAIACLNEIIPE
MGSDKIHHHHHHMKIVHVCETLKGGIESYLAEIIPYQVGLYGAENIHIIVPRDGDEGRSEFHEAVVWEFRRQGRSLSTMLNLCLAILKIVRTQAPDVIHLHSSFAGAIGRVVLMALRKETKVIYCPHGWSYLRQGAEHTNWLWKKIETMLALACNRIVCISEHEYNAALDAGLPKQKLELIVSGISDLVPDAPRNQAVSSEKRAIRLLFVGRLDYQKGVDLLFNALRLAARKDIELTVVGEAVVNSGWWAQVRGSCPENVQIIGWQERDALQIFYDLADALVVPSRWEGFGLVAVEALRAGTPVICNVAGALPDIVEHGISGYHLNFENEEKAVAFFSDLKLENLTLLRRAARERYTSVFKSQAMNEKMLQMYQAVMPHAETVGAAGFME
MGSDKIHHHHHHMKKIHGKVMVERHHLEILRAVERQGSLTAAAEQLHLTQSALSHAIRKLEQQLGTSVWLREGRQLRLTQAGHQLLALANRLLPQFEHAEMQIHQIAQGQRGSLRVGMECHPCYQWLLKVVGPYLQQWPDVDVDVKQEFQFGGMGALFGHDIDLLVTPDPLHKPGVRFEPVFDYEQVLVVSEDHSLADEKWVEPHQLEKETLITYPVAVERLDIFTRFFLPAHTAPARHKTIETTDIMLQMVAAGRGVSALPRWLVDDYARNMPIRALKLGQQGMPKQIFLGFRERDEAVDYLNAFVKLARSIRWN
